Laboratory results published in paper PMC4117571.

Test system: hnRNP A1 (endogenous) ((SF268 cells))
Experiment: pull-down, competition, immunoblot
Details: biotin-16-UTP incorporated; 5 mM HEPES pH 7.1, 40 mM KCl, 0.1 mM EDTA, 2 mM MgCl2, 2 mM DTT, RNasin, 0.25 mg/ml heparin; 200 ug SF268 extract, 3 ug RNA, 100 ul; 15 min 30 C, then beads …

| Substance | binding signal (% reduction of bound hnRNP A1) |
| --- | --- |
| EV71 5'UTR | 73 |
| EV71 SL-II | 80 |
